Results as given in paper PMC5797236, “The odd one out: Arabidopsis reticulon 20 does not bend ER membranes but has a role in lipid regulation” (Scientific Reports, 2018).
Blank lines part the entries; values can stand above or below the binder they belong to.

Molecular target: T1, GFP-RTN20 (Arabidopsis reticulon 20) (Arabidopsis thaliana, UniProt A9X4U2 1-561)
T1 construct: Reticulon 20 (RTN20), Arabidopsis thaliana, locus At2g43420; FRET donor; the methods name Gateway vectors for N- or C-terminal GFP without saying which was used for each gene; also called RTNLB20; source: tobacco (Nicotiana tabacum) leaf epidermal cells, Agrobacterium-mediated transient expression, in living cells; not shown: GFP, N-terminal, kept
T1 sequence (looked up): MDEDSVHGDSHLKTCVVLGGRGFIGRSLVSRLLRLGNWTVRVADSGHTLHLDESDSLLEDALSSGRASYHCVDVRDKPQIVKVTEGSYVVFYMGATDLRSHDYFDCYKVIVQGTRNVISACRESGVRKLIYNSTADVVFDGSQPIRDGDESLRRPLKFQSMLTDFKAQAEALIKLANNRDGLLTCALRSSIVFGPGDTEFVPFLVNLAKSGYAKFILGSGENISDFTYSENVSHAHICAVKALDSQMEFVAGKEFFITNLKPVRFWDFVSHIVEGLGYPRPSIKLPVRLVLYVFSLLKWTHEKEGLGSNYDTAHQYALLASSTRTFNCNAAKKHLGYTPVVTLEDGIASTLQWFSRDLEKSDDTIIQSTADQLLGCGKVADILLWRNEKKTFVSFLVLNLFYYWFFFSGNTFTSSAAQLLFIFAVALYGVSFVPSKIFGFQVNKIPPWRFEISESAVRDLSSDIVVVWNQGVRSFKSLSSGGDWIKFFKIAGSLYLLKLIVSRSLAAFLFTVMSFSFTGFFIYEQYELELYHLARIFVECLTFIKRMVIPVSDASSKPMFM
Test: FRET or BRET; FRET-FLIM in living tobacco leaf epidermal cells; GFP-RTN20 as donor, mRFP fusions as acceptors, transiently co-expressed; two-photon excitation at 920 nm; lifetimes measured at the ER associated with the nuclear envelope; donor alone 2.4 ± 0.03 ns
Details: partners not purified

GFP donor fluorescence lifetime (FRET-FLIM): 2.2 ns
B1: RTN19 fused to mRFP (Arabidopsis reticulon 19, 3BETAHSD/D2) (natural protein, Arabidopsis thaliana, UniProt Q67ZE1 1-564, looked up)
chain: MSPAATETERWCVVTGGRGFAARHLVEMLVRYEMFCVRIADLAPAIMLDPQEGNGVLDEGLRSGRVQYISADLRDKSQVVKAFQGAEVVFHMAAPDSSINNHQLQYSVNVQGTQNVIDACVDVGVKRLIYTSSPSVVFDGVHGILNGTESMAYPIKHNDSYSATKAEGEELIMKANGRNGLLTCCIRPSSIFGPGDRLLVPSLVAAARAGKSKFIIGDGNNLYDFTYVENVAHAHVCAERALASGGDVSTKAAGQAYFITNMEPIKFWEFMSQLLDGLGYERPSIKIPAFIMMPIAHLVELTYKVLGPYGMTVPQLTPSRVRLLSCSRTFDSTKAKDRLGYAPVVPLQEGIRRTIDSFSHLTAGSQSKREGPSKASRILGGGKVADTLLWKDLKQTLIAIFILISIYYNFVATGSTVVTALSKALLVASVFLFLHGILPEKIFGYTVEKIPASQFHLSKDSSHDLSLSVISSWNTTVKALRSLCQGNDWSFFFKVVFVLLALSLAGAISLHSIFVIGLPIAFLAFLVYEKKEQEIDSIVVSFKSFACKHKSDVYEKLFGSKKHD
notes: Reticulon 19 (RTN19, 3beta-hydroxysteroid dehydrogenase/C-4 decarboxylase isoform 2), Arabidopsis thaliana, locus At2g26260; FRET acceptor; also called RTNLB19; source: tobacco (Nicotiana tabacum) leaf epidermal cells, Agrobacterium-mediated transient expression, in living cells

GFP donor fluorescence lifetime (FRET-FLIM): 2.21 ± 0.02 ns
B4: mRFP-RTN1 (Arabidopsis reticulon 1) (natural protein, Arabidopsis thaliana, UniProt Q9SUR3 1-275, looked up)
chain: MAEEHKHDESVIAPEPAVEVVERESLMDKISEKIHHGGDSSSSSSSSDDEDEKKKTKKPSSPSSSMKSKVYRLFGREQPVHKVLGGGKPADIFMWKNKKMSGGVLGGATAAWVVFELMEYHLLTLLCHVMIVVLAVLFLWSNATMFINKSPPKIPEVHIPEEPILQLASGLRIEINRGFSSLREIASGRDLKKFLIAIAGLWVLSILGGCFNFLTLAYIALVLLFTVPLAYDKYEDKVDPLGEKAMIELKKQYAVLDEKVLSKIPLGPLKNKKKD
notes: Reticulon 1 (RTN1), Arabidopsis thaliana, locus AT4G23630; FRET acceptor; also called RTNLB1; source: tobacco (Nicotiana tabacum) leaf epidermal cells, Agrobacterium-mediated transient expression, in living cells; not shown: mRFP, N-terminal, kept

The remaining lines, values behind:

B2: RTN3 fused to mRFP (Arabidopsis reticulon 3) (natural protein, Arabidopsis thaliana, UniProt Q9SH59 1-255, looked up)
chain: MAEEHKHEESIMEKISEKIHGHDDSSSSSSDSDDDKNSASLKTKIYRLFGREQPLHKLFGGGKPADIFLWRNKKVSGGVLGAATVSWILFELLEYNLLTLFGHISILALAVLFLWSSASTFIHKSPLHIPEVHIPEDVVLQLASGLRIEINRGFTVLRDIASGRDLKKFLLVIAGLWVLSKVGSSCNFLTLIYIATVLLFTIPVLYEKYEDKVDDFGEKAMREIKKQYVEFDVKVLSKVMSKIPKGAFAFIKKKD
notes: Reticulon 3 (RTN3), Arabidopsis thaliana, locus AT1G64090; FRET acceptor; also called RTNLB3; source: tobacco (Nicotiana tabacum) leaf epidermal cells, Agrobacterium-mediated transient expression, in living cells
GFP donor fluorescence lifetime (FRET-FLIM): 2.2 ns

B3: RTN2 fused to mRFP (Arabidopsis reticulon 2) (natural protein, Arabidopsis thaliana, UniProt Q9SUT9 1-271, looked up)
chain: MADEHKHEESSPNLDPAVEVVERESLMEKLSEKIHHKGDSSSSSSSDDENEKKSSSSSPKSLKSKVYRLFGRERPVHKVLGGGKPADIFMWKDKKMSGGVFGGATVAWVLFELMEYHLLTLLCHVMIVALAVLFLWSNATMFIHKSPPKIPEVHIPEEPLLQLASGLRIEINRGISSLREIASGRDIKKFLSAIAGLWVLSILGGCYSFLTLAYIALVLLFTVPLFYDKYEDKVDSYGEKAMAELKKQYAVLDAKVFSKIPRGPLKDKKKD
notes: Reticulon 2 (RTN2), Arabidopsis thaliana, locus AT4G11220; FRET acceptor; also called RTNLB2; source: tobacco (Nicotiana tabacum) leaf epidermal cells, Agrobacterium-mediated transient expression, in living cells
GFP donor fluorescence lifetime (FRET-FLIM): 2.2 ns
